Results from patent US20100292303A1, “GENE EXPRESSION PROFILE FOR PREDICTING OVARIAN CANCER PATIENT SURVIVAL” (priority 2007, published 2010).

How the values were obtained:
[1] = tested on: ovarian cancer cells SKOV3; assay: SKOV3 ovarian tumor growth and microvessel density in nude mice; type: in vivo
Protocol: The MAGP2 siRNA molecule had the following sequence: 5′-[…]-3′ (sense; SEQ ID NO: 1) and 5′-[…]-3′ (antisense; SEQ ID NO: 2). Five stable clones were selected for each group. A total of 5×10^5 cells from each clone were injected subcutaneously into the posterior neck region of 5 nude mice (6 to 8 week-old female nude mice, Charles River, Mass.). After 4 weeks, the mice were sacrificed and the tumors developed from each mouse were removed and weighed. They samples were subsequently fixed in formalin and processed for histological evaluation. MAGP2 expression in tumor tissues was evaluated using a rabbit anti-human MAGP2 antibody and the microvessel density was determined by immunolocalization of CD34+ blood vessels using a goat anti-mouse polyclonal antibody (FIG. 8A). Significant difference in the weight of the tumors between the MAGP2 siRNA and the control group were found as determined by Mann-Witney U test (FIG. 8B). A p value <0.05 was considered as significant.

HUVE cells [2] = assay: HUVE cell invasion through Matrigel; type: cell-based, human; settings: cells seeded onto Matrigel matrix; P<0.05
Protocol: (§1) HUVE cell invasion was measured by adding cells (5×10^4) to the top chamber of a BD Falcon HTS FluoroBlok insert with a PET membrane coated with a thin layer of Matrigel. To evaluate the effect of MAGP2 on HUVE cell proliferation, 1,000 HUVECs/well were plated in 8 wells of a 96-well plate in EBM2 with 2.0% FBS. The next day the media were removed and replaced with 0.2% FBS media with elute buffer control or with recombinant MAGP2 protein at 4.5 ng/ml. After 2 days, elute control or MAGP2 was added a second time. Cell number was quantified via MTT assay.
(§2) To determine the effect of recMAGP2 on the HUVE cell motility, recMAGP2 was used as a chemoattractant. […] Similarly, exposing HUVE cells seeded onto Matrigel matrix to reMAGP2 stimulated a 2-fold increase in invasion (P<0.05) (FIG. 5D).

FAK = FAK phosphorylation (tyrosine 407) western blot in HUVE cells; type: cell-based, human; settings: 100 ng/ml, 30 minutes
Protocol: Western Blot Analysis. To assess FAK phosphorylation in HUVE cells, cells were plated on 60 mm^2 dishes treated with 100 ng/ml MAGP2 recombinant protein or elute buffer control. After 30 minutes the cells were washed with 4° C. PBS and lysed in RIPA buffer containing 0.1% SDS and proteinase inhibitors. Western blotting was then performed with 5 μg of protein under denaturing conditions on a 4-12% NuPAGE gel and transferred to a PVDF membrane. The membrane was blocked in 5% nonfat milk for 1 hr at RT, probed with a 1:1000 dilution of anti-FAK[pY^407] rabbit polyclonal 1° antibody (Biosource) for 2 hr at RT. The blot was washed 3 times for 5 min with TBST and probed with a 1:2000 dilution of goat anti-rabbit HRP conjugated 2° antibody (Amersham) for 1 hr at RT. The blot was washed 3 times for 10 min with TBST and bands were detected via chemiluminscence using an ECL kit (Amersham).
Since FAK is a mediator of αvβ3 signaling, the phosphorylation status of FAK in recMAGP2 treated cells was confirmed. Using a phosphorylation specific antibody recognizing tyrosine 407, a western blot comparing phospho-FAK to total FAK was completed for both treated and untreated HUVE cell isolates.

HUVE cells [3] = assay: HUVE cell survival under low serum (MTT assay); type: cell-based, human; settings: 5 days, P<0.005
Protocol: as §1
In addition to motility and invasion, HUVE cell survival under low serum conditions was prolonged by recMAGP2.

HUVE cells [4] = assay: HUVE cell motility assay (FluoroBlok insert, recMAGP2 as chemoattractant); type: cell-based, human; settings: 2.5 hours, compared to medium alone, P<0.05
Protocol: Cell motility was evaluated for HUVE cells (5×10^4) by adding them to the top chamber of a BD Falcon HTS FluoroBlok insert with a PET membrane with eight […] pore (BD Biosciences) in […] of medium with 0.2% FBS. The inserts were placed into the bottom chamber wells of a 24-well plate containing medium with increasing concentrations of recombinant MAGP2. After 2.5 hr, cells that migrated through the pores of the membrane to the bottom chamber were stained with calcein […] (Molecular Probes, Eugene, Oreg.) in PBS for 30 min at 37° C. The fluorescence of migrated cells was quantified using a fluorometer set at 485 nm excitation and 530 nm emission. Parallel control experiments were performed using the MAGP2 elution buffer. HUVECs motility was mediated through αvβ3 integrin, cells were pre-treated either with an anti-αvβ3 integrin antibody (Santa Cruz Laboratories #sc-7312) or with an equal amount of IgG (ICL #RS-90G1) for 30 minutes before the addition of 100 ng/ml MAGP2. The motility assay was then performed as described above.
as §2

αvβ3 integrin receptor = αvβ3 integrin receptor (human, UniProt P06756 31-1048; P05106 27-788); assay: cell-based or functional assay
Sequence of αvβ3 integrin receptor (P06756 31-1048, chain 1 of 2): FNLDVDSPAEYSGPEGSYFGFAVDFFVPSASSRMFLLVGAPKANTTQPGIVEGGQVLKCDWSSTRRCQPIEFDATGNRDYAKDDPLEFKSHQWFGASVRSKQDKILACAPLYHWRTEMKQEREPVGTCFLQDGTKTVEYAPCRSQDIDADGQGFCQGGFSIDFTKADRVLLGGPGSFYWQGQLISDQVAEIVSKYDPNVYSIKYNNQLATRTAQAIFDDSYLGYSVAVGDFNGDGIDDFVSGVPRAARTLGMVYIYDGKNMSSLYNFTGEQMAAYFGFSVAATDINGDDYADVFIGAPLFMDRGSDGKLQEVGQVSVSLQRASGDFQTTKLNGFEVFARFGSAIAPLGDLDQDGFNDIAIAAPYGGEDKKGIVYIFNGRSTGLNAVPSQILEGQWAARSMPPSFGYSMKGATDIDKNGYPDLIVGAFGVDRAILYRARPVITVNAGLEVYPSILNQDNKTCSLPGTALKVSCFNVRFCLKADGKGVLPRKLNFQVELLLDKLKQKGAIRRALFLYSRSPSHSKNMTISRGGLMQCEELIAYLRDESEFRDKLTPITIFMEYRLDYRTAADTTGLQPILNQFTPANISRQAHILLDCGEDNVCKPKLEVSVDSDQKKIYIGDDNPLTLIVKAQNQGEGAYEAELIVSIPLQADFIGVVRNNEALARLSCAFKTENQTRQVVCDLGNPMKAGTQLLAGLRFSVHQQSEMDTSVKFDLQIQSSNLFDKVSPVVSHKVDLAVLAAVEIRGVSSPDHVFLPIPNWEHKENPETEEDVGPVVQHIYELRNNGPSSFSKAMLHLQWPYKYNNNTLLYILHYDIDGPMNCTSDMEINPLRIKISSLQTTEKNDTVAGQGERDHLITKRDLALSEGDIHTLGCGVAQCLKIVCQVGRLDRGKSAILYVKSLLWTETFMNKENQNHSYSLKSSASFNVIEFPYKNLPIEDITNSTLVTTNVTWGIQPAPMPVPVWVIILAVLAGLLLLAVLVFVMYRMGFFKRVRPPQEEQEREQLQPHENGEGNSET
Sequence of αvβ3 integrin receptor (P05106 27-788, chain 2 of 2): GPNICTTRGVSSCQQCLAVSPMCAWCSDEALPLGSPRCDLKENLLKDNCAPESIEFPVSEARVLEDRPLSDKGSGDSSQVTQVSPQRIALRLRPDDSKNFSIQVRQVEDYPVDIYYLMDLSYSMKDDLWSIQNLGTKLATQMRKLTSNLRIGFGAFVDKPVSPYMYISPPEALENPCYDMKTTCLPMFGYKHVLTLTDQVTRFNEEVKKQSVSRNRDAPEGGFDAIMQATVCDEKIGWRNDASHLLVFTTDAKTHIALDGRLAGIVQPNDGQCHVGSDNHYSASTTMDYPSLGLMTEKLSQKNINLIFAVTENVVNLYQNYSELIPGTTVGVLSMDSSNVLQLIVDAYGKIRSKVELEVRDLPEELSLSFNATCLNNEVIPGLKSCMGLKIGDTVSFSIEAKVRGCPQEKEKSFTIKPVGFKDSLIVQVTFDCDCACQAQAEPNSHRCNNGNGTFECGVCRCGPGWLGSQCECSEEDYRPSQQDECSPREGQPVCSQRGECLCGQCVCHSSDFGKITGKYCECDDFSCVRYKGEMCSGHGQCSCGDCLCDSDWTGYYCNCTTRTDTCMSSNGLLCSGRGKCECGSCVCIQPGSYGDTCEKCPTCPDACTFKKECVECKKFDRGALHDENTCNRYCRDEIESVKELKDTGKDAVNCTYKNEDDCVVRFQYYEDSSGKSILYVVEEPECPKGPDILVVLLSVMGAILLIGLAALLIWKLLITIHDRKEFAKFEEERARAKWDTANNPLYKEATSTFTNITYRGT

OVCA429 cells = assay: OVCA429 cell survival under increasing concentrations of recMAGP2; type: cell-based; settings: 200 ng/ml recMAGP2, 96 hours; P<0.01
Source text: (§3) Cell Lines and Culture Conditions. A224, UCI107 and OVCA429 ovarian cancer cell lines were maintained in RPMI (Invitrogen Life Technologies Inc, Carlsbad, Calif.) supplemented with 10% fetal bovine serum (Gemini Bio-Products, Woodland, Calif.) and 1% L-glutamine (Invitrogen Life Technologies).
Based on the pathway analysis, αvβ3 mediated signaling was implicated in ovarian tumor cell survival through the stimulation of critical cell-cycle checkpoint regulators. To assess this observation, OVCA429 cells were cultured under increasing concentrations of purified recMAGP2 and harvested at 24-hour intervals.

A224 cells = assay: A224 ovarian cancer cell adhesion on recMAGP2 coated wells; type: cell-based; settings: plated on recMAGP2 coated wells, relative to control wells; P<0.0005
Source text: as §3
(§4) Screening a serous ovarian cancer cell line panel for MAGP2 expression by qRT-PCR (FIG. 4A) and western blot, as well as αvβ3 receptor status through FACs analysis (FIG. 4B, select cell lines only), facilitated the selection of cell lines amenable for downstream examination. Quantitative RT-PCR was performed as described in Example 1. Among cell lines expressing MAGP2, only the SKOV3 cell line co-expressed the αvβ3 receptor. Two cell lines, A224 and OVCA429, were positive for αvβ3, yet lacked measurable levels of MAGP2. These cell lines were chosen for subsequent analyses involving the recombinant protein along with UCI107, which was negative for both the receptor and MAGP2.
(§5) The effect of recMAGP2 on adhesion was evaluated for A224 and UCI107 cell lines.

HUVE cells [5] = assay: Affymetrix U133 Plus 2.0 microarray of recMAGP2 treated HUVE cells; type: cell-based, human; settings: P<0.01 and fold-change ≧1.5; treated n=3 vs untreated n=3
Source text: The marked effect of recMAGP2 on HUVE cell behavior indicated a change in cellular regulation had taken place possibly affecting gene expression. To explore the consequences of recMAGP2 induced signaling, Affymetrix® U133 Plus 2.0 microarrays were completed for a series of recMAGP2 treated (n=3) and untreated (n=3) HUVE cell isolates. A total of 274 probe sets were identified for pathway analysis in cells exposed to recMAGP2 (P<0.01 and fold-change ≧1.5) (FIG. 6A). […] Deregulation of these genes may lead to a reduction in vessel integrity permitting endothelial cell migration and neovascularization.

HUVE cells [6] = assay: Ca2+ oscillation in HUVE cells (fluo-4/AM, confocal microscope); type: cell-based, human
Protocol: To identify the mechanism underlying the stimulation of FAK by recMAGP2, Ca^2+ oscillation was assessed in treated HUVE cells. […] This may account in part for the enhanced motility and survival of HUVE cells as described in the pathway analysis.

UCI107 cells = assay: UCI107 ovarian cancer cell adhesion on recMAGP2; type: cell-based; settings: UCI107 negative for αvβ3 receptor and MAGP2
Source text: as §3, §4, §5

adhesion of HUVE cells plated on recMAGP2 (αvβ3 integrin receptor) [fold]	Molecule	weight of the tumors ([1]; SKOV3 stably transfected, subcutaneous, nude mice, 4 weeks, vs empty vector, Mann-Witney U test p<0.05)	CD34 (microvessel density) in tumor tissues ([1]; immunolocalization of CD34+ blood vessels, FIG. 8A)	MAGP2 expression in tumor tissues ([1]; immunostaining, FIG. 8A)	increase in HUVE cell invasion (HUVE cells [2]) [fold]	phosphorylated FAK (tyrosine 407) versus total FAK (FAK)	HUVE cell survival under low serum conditions (HUVE cells [3])	HUVE cell motility (HUVE cells [4])	OVCA429 cell survival (OVCA429 cells)	A224 cell adhesion (A224 cells)	probe sets identified in cells exposed to recMAGP2 (HUVE cells [5])	[Ca2+]I levels (HUVE cells [6]; HUVE cells loaded with fluo-4/AM)	[Ca2+]I oscillation frequency (HUVE cells [6]; individual HUVE cells) [s/cycle]	UCI107 cell adhesion (UCI107 cells)
	MAGP2 siRNA: siRNA 5′-ACCGGTTAAACAATGCATTCAT-3′ (sense; SEQ ID NO: 1) and 5′-ATGAATGCATTGTTTAACCGGC-3′ (antisense; SEQ ID NO: 2) (listed as DNA, chemistry not fully specified)	significantly decrease the weight	decreased	decreased MAGP2 expression										
2.5	purified recombinant MAGP2 (microfibril associated glycoprotein 2) (ligand, UniProt Q13361 22-173, looked up) IPLGVNSQRGDDVTQATPETFTEDPNLVNDPATDETVLAVLADIAPSTDDLASLSEKNTTAECWDEKFTCTRLYSVHRPVKQCIHQLCFTSLRRMYIVNKEICSRLVCKEHEAMKDELCRQMAGLPPRRLRRSNYFRLPPCENVDLQRPNGL				2	increase in phosphorylated FAK	prolonged	increased the motility of the cells in a dose dependent manner	significant difference in survival	increase in adhesion	274	immediate increase	100	only a modest increase in adhesion at high concentrations
